From paper PMC3432913 come the findings set out here.

In this experiment the target is Ptch1-GFP (mouse) (UniProt Q61115). Briefly: cell surface binding assay.
Sequence of UniProt Q61115 (Q61115 whole entry): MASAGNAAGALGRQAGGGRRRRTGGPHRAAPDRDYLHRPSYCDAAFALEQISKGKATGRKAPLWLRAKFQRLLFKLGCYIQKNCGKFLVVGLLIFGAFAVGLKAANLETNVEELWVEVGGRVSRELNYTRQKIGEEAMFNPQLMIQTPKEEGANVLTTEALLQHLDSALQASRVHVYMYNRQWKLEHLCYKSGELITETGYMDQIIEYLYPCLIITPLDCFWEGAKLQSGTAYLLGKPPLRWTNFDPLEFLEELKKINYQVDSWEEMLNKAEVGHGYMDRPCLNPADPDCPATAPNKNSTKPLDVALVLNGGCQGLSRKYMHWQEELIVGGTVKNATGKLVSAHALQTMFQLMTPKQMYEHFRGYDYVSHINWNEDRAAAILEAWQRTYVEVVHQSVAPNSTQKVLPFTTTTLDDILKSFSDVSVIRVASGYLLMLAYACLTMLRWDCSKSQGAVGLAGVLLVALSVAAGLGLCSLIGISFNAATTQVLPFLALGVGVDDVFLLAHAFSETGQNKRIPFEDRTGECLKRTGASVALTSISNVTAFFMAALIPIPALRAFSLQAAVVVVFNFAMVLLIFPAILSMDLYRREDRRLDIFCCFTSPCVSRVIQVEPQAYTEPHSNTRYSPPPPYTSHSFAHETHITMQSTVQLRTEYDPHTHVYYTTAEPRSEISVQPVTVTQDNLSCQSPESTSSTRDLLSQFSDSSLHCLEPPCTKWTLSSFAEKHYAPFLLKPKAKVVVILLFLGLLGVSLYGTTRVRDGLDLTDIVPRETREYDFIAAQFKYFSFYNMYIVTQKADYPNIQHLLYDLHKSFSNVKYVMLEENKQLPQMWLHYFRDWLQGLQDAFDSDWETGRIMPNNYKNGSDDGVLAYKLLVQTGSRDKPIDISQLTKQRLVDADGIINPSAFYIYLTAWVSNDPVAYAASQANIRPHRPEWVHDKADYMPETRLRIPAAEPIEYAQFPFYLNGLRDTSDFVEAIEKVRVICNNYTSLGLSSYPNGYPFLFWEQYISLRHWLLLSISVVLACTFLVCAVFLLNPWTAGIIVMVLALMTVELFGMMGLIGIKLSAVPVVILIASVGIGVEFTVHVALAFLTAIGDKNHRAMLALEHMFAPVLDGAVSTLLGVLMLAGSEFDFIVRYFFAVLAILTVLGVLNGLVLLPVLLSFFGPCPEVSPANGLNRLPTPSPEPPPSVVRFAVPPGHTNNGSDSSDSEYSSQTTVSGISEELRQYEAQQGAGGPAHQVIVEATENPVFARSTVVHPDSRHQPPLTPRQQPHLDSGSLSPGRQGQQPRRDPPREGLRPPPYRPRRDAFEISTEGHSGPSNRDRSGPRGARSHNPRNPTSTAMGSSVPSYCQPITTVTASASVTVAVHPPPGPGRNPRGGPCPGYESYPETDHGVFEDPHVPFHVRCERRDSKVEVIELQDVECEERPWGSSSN

For “Boc-Fc construct containing the FNIIIb domain alone (Fc fusion)”, the binding relative to Boc ecto-Fc amounted to 60%.
Take “Boc-Fc construct containing the FNIIIa domain alone (Fc fusion)”: the binding relative to Boc ecto-Fc stood at 60%.
